Series [1] deals with the molecule itself. Put plainly: MST; RED-tris-NTA labelled protein at 50 nM, unlabelled protein of the same construct titrated from 10 uM (16-step serial dilution), PBS, 15 min at room temperature; Monolith NT.115; oligomerisation, step of the constant not told.
Series [2] concerns the molecule itself. Put plainly: SEC-MALS; 100 ul at 1 mg/ml (NDP52-FL, CoCoA) or 5 mg/ml (NNDP52, CNDP52, ZFs); Superdex 200 (30 x 1 cm); 50 mM Tris pH 7.5, 150 mM NaCl, 1 mM DTT; room temperature. On the technique in general: In gel filtration, larger molecules generally elute earlier.
Series [3] has as its target T1, NDP52-FL (Human, UniProt Q13137 1-446).
T1 sequence: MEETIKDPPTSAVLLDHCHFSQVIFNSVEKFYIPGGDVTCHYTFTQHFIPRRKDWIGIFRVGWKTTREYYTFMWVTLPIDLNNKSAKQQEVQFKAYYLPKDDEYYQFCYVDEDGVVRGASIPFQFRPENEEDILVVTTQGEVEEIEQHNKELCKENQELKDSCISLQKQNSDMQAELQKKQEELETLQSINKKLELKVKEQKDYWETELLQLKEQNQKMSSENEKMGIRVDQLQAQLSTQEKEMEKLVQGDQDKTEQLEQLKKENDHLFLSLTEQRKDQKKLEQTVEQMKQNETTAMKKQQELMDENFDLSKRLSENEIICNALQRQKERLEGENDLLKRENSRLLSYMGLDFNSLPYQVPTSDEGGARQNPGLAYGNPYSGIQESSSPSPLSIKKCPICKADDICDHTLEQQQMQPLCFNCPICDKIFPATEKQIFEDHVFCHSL
Put plainly: fluorescence titration; Fluorescence: 100 nM DNA, 50 mM Tris-HCl pH 7.5, 150 mM NaCl, 1 mM DTT; EMSA: 50 mM Tris-HCl pH 7.5, 50 mM NaCl, 3 mM MgCl2, 5 min; temperature not stated. Conditions: protein: recombinant, tags: His-tag (pET151), chain copies: 2, blunt.

The target of the next series is T2, CoCoA (Human, UniProt Q9P1Z2 1-691).
T2 sequence: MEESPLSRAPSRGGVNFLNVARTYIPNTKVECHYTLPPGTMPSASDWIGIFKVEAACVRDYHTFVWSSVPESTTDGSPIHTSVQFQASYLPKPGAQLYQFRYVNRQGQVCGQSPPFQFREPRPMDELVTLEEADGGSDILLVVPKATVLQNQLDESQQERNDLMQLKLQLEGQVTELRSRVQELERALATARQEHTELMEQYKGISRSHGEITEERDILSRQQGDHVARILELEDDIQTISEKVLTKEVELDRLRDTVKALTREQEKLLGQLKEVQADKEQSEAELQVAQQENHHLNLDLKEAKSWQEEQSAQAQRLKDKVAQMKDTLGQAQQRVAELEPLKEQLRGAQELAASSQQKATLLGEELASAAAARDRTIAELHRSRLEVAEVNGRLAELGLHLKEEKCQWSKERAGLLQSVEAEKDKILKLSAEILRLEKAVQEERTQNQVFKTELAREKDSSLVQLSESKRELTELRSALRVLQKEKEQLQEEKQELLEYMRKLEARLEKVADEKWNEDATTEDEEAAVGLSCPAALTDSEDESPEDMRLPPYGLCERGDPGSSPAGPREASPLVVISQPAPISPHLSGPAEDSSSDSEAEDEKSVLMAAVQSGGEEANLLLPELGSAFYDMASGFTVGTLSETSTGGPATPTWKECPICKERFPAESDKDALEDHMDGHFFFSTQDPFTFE
Put plainly: fluorescence titration; high affinity; Fluorescence: 100 nM DNA, 50 mM Tris-HCl pH 7.5, 150 mM NaCl, 1 mM DTT; EMSA: 50 mM Tris-HCl pH 7.5, 50 mM NaCl, 3 mM MgCl2, 5 min; temperature not stated. The note with it: protein: recombinant, tags: His-tag (pET151), chain copies: 2, blunt. (A gel shift assay detects complexes by their altered migration in electrophoresis.)

Series [4] addresses T1, NDP52-FL. Kind of series: fluorescence titration, competition; with and without ss40 competitor; Fluorescence: 100 nM DNA, 50 mM Tris-HCl pH 7.5, 150 mM NaCl, 1 mM DTT; EMSA: 50 mM Tris-HCl pH 7.5, 50 mM NaCl, 3 mM MgCl2, 5 min; temperature not stated. The note with it: protein: recombinant; tags: His-tag (pET151); chain copies: 2; label: 3' FAM (called FITC in Methods) on strand 1 for fluorescence; blunt.

Series [5] concerns the target T3, NNDP52 (N-terminal truncated region of NDP52, amino acid residues 1-190) (UniProt Q13137 1-190).
T3 chain: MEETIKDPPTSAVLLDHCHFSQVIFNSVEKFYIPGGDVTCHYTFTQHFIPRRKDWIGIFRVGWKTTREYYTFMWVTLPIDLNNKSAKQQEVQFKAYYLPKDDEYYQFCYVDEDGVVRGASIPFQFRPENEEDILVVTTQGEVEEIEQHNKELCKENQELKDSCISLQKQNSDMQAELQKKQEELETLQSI
Put plainly: MST.

Series [6] concerns the molecule itself. Put plainly: AFM imaging; purified protein adsorbed on mica (poly-L-lysine), imaged in liquid, PeakForce Tapping; monomers and oligomers counted by hand.
In series [7] the target is T4, NDP52-FL (full-length NDP52/CALCOCO2), Q13137.
T4 chain: T1 sequence
Put plainly: MST; RED-tris-NTA labelled protein at 50 nM, unlabelled protein of the same construct titrated from 10 uM (16-step serial dilution), PBS, 15 min at room temperature; Monolith NT.115; oligomerisation, step of the constant not told. The note with it: remark: other sources report otherwise.

The target of series [8] is T4, NDP52-FL (full-length NDP52/CALCOCO2), …. Put plainly: AFM imaging; purified protein adsorbed on mica (poly-L-lysine), imaged in liquid, PeakForce Tapping; monomers and oligomers counted by hand. The note with it: remark: other sources report otherwise.
For series [9] the target is unchanged. Put plainly: mass photometry; NDP52-FL alone, 50 mM Tris-HCl pH 7.5, 150 mM NaCl, OneMP mass photometer; results say 100 nM, methods say diluted to 10 nM. The note with it: remark: other sources report otherwise.
Series [10] has the same target. Put plainly: SEC-MALS; 100 ul at 1 mg/ml (NDP52-FL, CoCoA) or 5 mg/ml (NNDP52, CNDP52, ZFs); Superdex 200 (30 x 1 cm); 50 mM Tris pH 7.5, 150 mM NaCl, 1 mM DTT; room temperature. The note with it: remark: other sources report otherwise.
The series “MST” deals with the molecule itself. Put plainly: MST.
[11] abbreviates: label: 3' FAM (called FITC in Methods) on strand 1.
Setting [12] is: label: 3' FAM (called FITC in Methods) on strand 1 for fluorescence.

For orientation: Kd means the free concentration of one partner at which half of the binding sites on the other are occupied at equilibrium, for simple one-to-one binding. By stoichiometry N is commonly meant the number of molecules, sites or subunits per partner or assembly.

Where “and” joins values, the source holds several entries; their conditions need not be identical. Identical values can stand only once.

B1: CoCoA (recombinant) (natural protein, UniProt Q9P1Z2 1-691, looked up)
chain: T2 sequence
notes: CoCoA, member of the CALCOCO family, recombinant; source: E. coli BL21 DE3, purified (HisTrap FF, Superdex 200 SEC)
B1 displayed a Kd in series [1] of 0.085 µM. The “stoichiometry N” value in [2] came to 2.

B2: ds15 (dsDNA)
DNA 1: TTAGTTGTTCTCTGG
DNA 2: CCAGAGAACAACTAA
For the molecule B2, the dissociation constant (Kd) in the series with NDP52-FL [3] (setting [11]) was < 0.1 µM. Also, in the series with CoCoA (setting [11]), the binding result is “binds”.

B3: ds40 (dsDNA)
DNA 1: TTAGTTGTTCGTAGTGCTCGTCTGGCTCTGGATTACCCGC
DNA 2: GCGGGTAATCCAGAGCCAGACGAGCACTACGAACAACTAA
B3: the dissociation constant Kd in the series with NDP52-FL [3] (setting [12]) and in the series with NDP52-FL [4] was < 0.1 µM in each case. The binding result in the series with CoCoA (setting [12]) is on record as “binds”.

B4: CNDP52 (C-terminal region of NDP52, amino acid residues 365-446) (domain or fragment, UniProt Q13137 365-446, looked up)
chain: EGGARQNPGLAYGNPYSGIQESSSPSPLSIKKCPICKADDICDHTLEQQQMQPLCFNCPICDKIFPATEKQIFEDHVFCHSL
notes: NDP52/CALCOCO2, a section of the coiled-coil and both zinc finger domains, amino acid residues 365-446; source: E. coli BL21 DE3, purified (HisTrap FF, Superdex 200 SEC)
In the case of B4, the Kd turned out to be 0.11 µM in series [5] and 0.05 ± 0.006 µM in series [1]. The “stoichiometry N” value in series [2] was found to be 3; in series [6], 2.

B5: NDP52-FL (full-length NDP52/CALCOCO2), Q13137 1-446 (natural protein)
chain: T1 sequence
Regarding B5, the Kd in [7] is 0.21 µM. Moreover, the percent of molecules in an oligomeric state in series [8] was 15%. Besides, the stoichiometry N in [8] is 2; in series [9] it was 2 and 3; in [10], 2 and 3 and 4.

B6: ZFs (the two zinc finger domains of NDP52, amino acid residues 380-446) (domain or fragment, UniProt Q13137 380-446, looked up)
chain: YSGIQESSSPSPLSIKKCPICKADDICDHTLEQQQMQPLCFNCPICDKIFPATEKQIFEDHVFCHSL
notes: NDP52/CALCOCO2, zinc finger domains ZF1 and ZF2, amino acid residues 380-446; also called ZFs domain; source: E. coli BL21 DE3, purified (HisTrap FF, Superdex 200 SEC)
Turning to B6, in series [1], the Kd came out at 0.18 ± 0.017 µM. Further, the “stoichiometry N” value in series [2] is 2 and 3.

B7: NNDP52 (N-terminal truncated region of NDP52, amino acid residues 1-190) (domain or fragment, UniProt Q13137 1-190, looked up)
chain: T3 chain
notes: NDP52/CALCOCO2, SKICH domain and part of the coiled-coil region, amino acid residues 1-190; also called N-terminal region of NDP52; source: E. coli BL21 DE3, purified (HisTrap FF, Superdex 200 SEC)
B7 yielded a Kd in “MST” of 0.17 µM. The “stoichiometry N” value in series [2] was found to be 2.

The values are drawn from publication PMC10195817, “Autophagy receptor NDP52 alters DNA conformation to modulate RNA polymerase II transcription” (Nature Communications, 2022).
